To fix the notation:
B1: Fc-tagged human NKG2D (Fc fusion)
chain: IWSAVFLNSLFNQEVQIPLTESYCGPCPKNWICYKNNCYQFFDESKNWYESQASCMSQNASLLKVYSKEDQDLLKLVKSYHWMGLVHIPTNGSWQWEDGSILSPNLLTIIEMQKGDCALYASSFKGYIENCSTPNTYICMQRTV
B2: human ULBP5 (ligand)
chain: GLADPHSLCYDITVIPKFRPGPRWCAVQGQVDEKTFLHYDCGSKTVTPVSPLGKKLNVTTAWKAQNPVLREVVDILTEQLLDIQLENYIPKEPLTLQARMSCEQKAEGHGSGSWQLSFDGQIFLLFDSENRMWTTVHPGARKMKEKWENDKDMTMSFHYISMGDCTGWLEDFLMGMDSTLEPSAGAPPTMSSG
B3: human ULBP6-02 extracellular domain (residues R26-G218) (ligand)
chain: RRDDPHSLCYDITVIPKFRPGPRWCAVQGQVDEKTFLHYDCGNKTVTPVSPLGKKLNVTMAWKAQNPVLREVVDILTEQLLDIQLENYTPKEPLTLQARMSCEQKAEGHSSGSWQFSIDGQTFLLFDSEKRMWTTVHPGARKMKEKWENDKDVAMSFHYISMGDCIGWLEDFLMGMDSTLEPSAGAPLAMSSG
modifications: glycosylation of residues N68 and N82 (in the crystal structure)
B4: human ULBP6-01 (residues G26-G218) (ligand)
chain: B3 chain with R1G, M60T, L81R, T122I
B5: human MICA (MHC class I polypeptide-related sequence A), soluble recombinant (ligand)
chain: EPHSLRYNLTVLSWDGSVQSGFLTEVHLDGQPFLRCDRQKCRAKPQGQWAEDVLGNKTWDRETRDLTGNGKDLRMTLAHIKDQKEGLHSLQEIRVCEIHEDNSTRSSQHFYYDGELFLSQNLETKEWTMPQSSRAQTLAMNVRNFLKEDAMKTKTHYHAMHADCLQELRRYLKSGVVLRRTVPPMVNVTRSEASEGNITVTCRASGFYPWNITLSWRQDGVSLSHDTQQWGDVLPDGNGTYQTWVATRICQGEEQRFTCYMEHSGNHSTHPVPSGKVLVLQSHW
B6: human ULBP1 (ligand)
chain: GWVDTHCLCYDFIITPKSRPEPQWCEVQGLVDERPFLHYDCVNHKAKAFASLGKKVNVTKTWEEQTETLRDVVDFLKGQLLDIQVENLIPIEPLTLQARMSCEHEAHGHGRGSWQFLFNGQKFLLFDSNNRKWTALHPGAKKMTEKWEKNRDVTMFFQKISLGDCKMWLEEFLMYWEQMLDPTKPPSLAPG
B7: human ULBP2 (ligand)
chain: GRADPHSLCYDITVIPKFRPGPRWCAVQGQVDEKTFLHYDCGNKTVTPVSPLGKKLNVTTAWKAQNPVLREVVDILTEQLRDIQLENYTPKEPLTLQARMSCEQKAEGHSSGSWQFSFDGQIFLLFDSEKRMWTTVHPGARKMKEKWENDKVVAMSFHYFSMGDCIGWLEDFLMGMDSTLEPSAGAPLAMSS
B8: human ULBP3 (ligand)
chain: DAHSLWYNFTIIHLPRHGQQWCEVQSQVDQKNFLSYDCGSDKVLSMGHLEEQLYATDAWGKQLEMLREVGQRLRLELADTELEDFTPSGPLTLQVRMSCECEADGYIRGSWQFSFDGRKFLLFDSNNRKWTVVHAGARRMKEKWEKDSGLTTFFKMVSMRDCKSWLRDFLMHRKKRLEPTAPPTMAPG

Numbering of substitutions follows the chain as printed.

Assay [1] has as its target MICB. As to the kind of experiment: SPR. In general terms: In SPR one partner is held on a chip, and binding of the other changes the refractive index at the surface.
Assay [2] deals with B1. Briefly: SPR.

The Kd is the free concentration of one partner at which half of the binding sites on the other are occupied at equilibrium, for simple one-to-one binding. The low end stands for higher affinity, the high end for lower affinity. With B1, the Kd in assay [1] amounted to 105 nM. Turning to B2, the Kd in assay [2] came out at 93.4 nM. With B3, the Kd in assay [2] was found to be 2.69 nM. In turn, B4 had a Kd in assay [2] of 42.7 nM. The same measure, in the same setting: the result for B5 reads 83.2 nM. Still for that read-out and setting: in the case of B6 it was 138 nM; in that of B7, 262 nM; in that of B8, 836 nM.

The record behind these values is article PMC11927390 (2025).
